Laboratory results from paper PMC10168641.

Biological target: NcCAR reductase (R) domain, NcCAR^Δ1–649 (Neurospora crassa)
Experiment: SAXS; R-domain in solution; best fit of the experimental data as a mixture of monomer and dimer

percent dimer in solution: 69%
percent monomer in solution: 31%
stoichiometry N: 2
Substance: NcCAR reductase (R) domain, NcCAR^Δ1–649 (domain or fragment)
